Reference: patent US20160083436A1 (Janssen / Centocor, published 2016)
Substitutions are numbered along the chain they refer to. Names and notes keep the numbering of the source. Ends that are not written are not given here.

B1: ABDCon (non-natural albumin binding domain consensus) (designed binder)
chain: LKEAKEKAIEELKKAGITSDYYFDLINKAKTVEGVNALKDEILKA
modifications: not fully specified (N-terminus)
notes: Expressed in E. coli with an N-terminal 8-His tag; measured mass 6383 Da; not shown: N-terminal 8-His tag
B2: ABDCon2 (designed binder)
chain: B1 chain with Y21A
modifications: not fully specified
notes: Expressed and purified as described for ABDCon; also called ABDCon Y21A; not shown: N-terminal 8-His tag as for ABDCon
B3: ABDCon7 (designed binder)
chain: B1 chain with E41Q
modifications: not fully specified
notes: Expressed and purified as described for ABDCon; also called ABDCon E41Q; not shown: N-terminal 8-His tag as for ABDCon
B4: ABDCon5 (designed binder)
chain: B1 chain with Y22S
modifications: not fully specified
notes: Expressed and purified as described for ABDCon; also called ABDCon Y22S; not shown: N-terminal 8-His tag as for ABDCon
B5: ABDCon3 (designed binder)
chain: B1 chain with Y21K
modifications: not fully specified
notes: Expressed and purified as described for ABDCon; also called ABDCon Y21K; not shown: N-terminal 8-His tag as for ABDCon
B6: ABDCon10 (designed binder)
chain: B1 chain with A37V
modifications: not fully specified
notes: Expressed and purified as described for ABDCon; also called ABDCon A37V; not shown: N-terminal 8-His tag as for ABDCon
B7: ABDCon6 (designed binder)
chain: B1 chain with Y22V
modifications: not fully specified
notes: Expressed and purified as described for ABDCon; also called ABDCon Y22V; not shown: N-terminal 8-His tag as for ABDCon
B8: ABDCon8 (designed binder)
chain: B1 chain with K30D
modifications: not fully specified
notes: Expressed and purified as described for ABDCon; also called ABDCon K30D; not shown: N-terminal 8-His tag as for ABDCon
B9: ABDCon4 (designed binder)
chain: B1 chain with Y22A
modifications: not fully specified
notes: Expressed and purified as described for ABDCon; also called ABDCon Y22A; not shown: N-terminal 8-His tag as for ABDCon
B10: ABDCon9 (designed binder)
chain: B1 chain with T31A
modifications: not fully specified
notes: Expressed and purified as described for ABDCon; also called ABDCon T31A; not shown: N-terminal 8-His tag as for ABDCon
B11: Tencon25-ABDCon fusion protein (designed binder)
chain: MLPAPKNLVVSEVTEDSARLSWTAPDAAFDSFLIQYQESEKVGEAIVLTVPGSERSYDLTGLKPGTEYTVSIYGVKGGHRSNPLSAIFTTGGGGSGGGGSLKEAKEKAIEELKKAGITSDYYFDLINKAKTVEGVNALKDEILKA
notes: not shown: C-terminal poly-histidine tag
B12: ABDCon12 (designed binder)
chain: TIDEWLLKEAKEKAIEELKKAGITSDYYFDLINKAKTVEGVNALKDEILKA
notes: also called ABDCon with N-terminal TIDEWL extension; not shown: N-terminal poly histidine tag

Columns and labels:
murine serum albumin [1] = target: T1, murine serum albumin (murine, UniProt P07724 25-608); test: SPR (ProteOn XPR-36), albumin immobilized, ABDCon as analyte
T1 construct: Bought from Sigma (A3559); also called mouse serum albumin; Mouse
Method: (§1) Each serum albumin was directly immobilized on a ligand channel in the vertical orientation of a GLC chip via standard amine coupling at 2.1 μg/mL at pH 5.0 to obtain surfaces with ligand densities of 500-1000 resonance units. […] The dissociation phases for all concentrations were monitored for two hours at a flow rate of 100 μL/min using PBST (PBS, 0.005% Tween20) as running buffer. A sixth sample (buffer only) was injected to monitor the baseline stability. The surfaces were regenerated using 1 short pulse (18 μL) of 0.8% phosphoric acid.
(§2) The raw response data were first processed by subtracting the buffer only responses and the non-specific binding between the analytes and the chip. Processed data of all five concentrations were globally fit to a 1:1 simple langmuir binding model for each ligand surface.

Rhesus serum albumin [2] = target: T2, Rhesus serum albumin (Rhesus, UniProt Q28522 17-600, limits assumed); test: as above
T2 construct: Bought from Sigma (A4297)
Method: as §1, §2

human serum albumin [3] = target: T3, human serum albumin (human, UniProt P02768 25-609); test: as above
T3 construct: Bought from Sigma (A4327); also called HSA
Method: as §1, §2

Rhesus serum albumin [4] = target: T2, Rhesus serum albumin; test: SPR
murine serum albumin [5] = target: T1, murine serum albumin; test: SPR
murine serum albumin [6] = target: T1, murine serum albumin; test: KD column of the mouse PK table; method and albumin species not stated there
murine serum albumin [7] = target: T1, murine serum albumin; test: SPR, same methods as Example 2
Method: as §1, §2

human serum albumin [8] = target: T3, human serum albumin; test: SPR, same methods as Example 2
Method: as §1, §2

T1 sequence (P07724 25-608 limits assumed): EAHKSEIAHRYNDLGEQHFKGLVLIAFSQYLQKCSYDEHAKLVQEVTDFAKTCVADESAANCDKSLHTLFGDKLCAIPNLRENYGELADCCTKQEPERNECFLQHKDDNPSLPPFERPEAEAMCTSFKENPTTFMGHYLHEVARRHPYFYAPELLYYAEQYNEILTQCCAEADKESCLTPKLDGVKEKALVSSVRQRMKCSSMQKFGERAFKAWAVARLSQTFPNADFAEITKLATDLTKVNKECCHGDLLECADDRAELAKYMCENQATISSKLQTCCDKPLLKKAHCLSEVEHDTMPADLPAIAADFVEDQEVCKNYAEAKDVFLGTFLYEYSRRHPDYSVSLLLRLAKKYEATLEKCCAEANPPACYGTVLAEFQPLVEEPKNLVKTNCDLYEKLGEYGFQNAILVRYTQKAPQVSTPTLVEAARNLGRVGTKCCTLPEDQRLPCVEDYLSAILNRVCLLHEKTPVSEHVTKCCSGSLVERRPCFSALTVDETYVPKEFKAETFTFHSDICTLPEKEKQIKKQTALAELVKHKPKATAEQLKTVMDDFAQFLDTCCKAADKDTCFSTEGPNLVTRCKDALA
T2 sequence (Q28522 17-600 limits assumed): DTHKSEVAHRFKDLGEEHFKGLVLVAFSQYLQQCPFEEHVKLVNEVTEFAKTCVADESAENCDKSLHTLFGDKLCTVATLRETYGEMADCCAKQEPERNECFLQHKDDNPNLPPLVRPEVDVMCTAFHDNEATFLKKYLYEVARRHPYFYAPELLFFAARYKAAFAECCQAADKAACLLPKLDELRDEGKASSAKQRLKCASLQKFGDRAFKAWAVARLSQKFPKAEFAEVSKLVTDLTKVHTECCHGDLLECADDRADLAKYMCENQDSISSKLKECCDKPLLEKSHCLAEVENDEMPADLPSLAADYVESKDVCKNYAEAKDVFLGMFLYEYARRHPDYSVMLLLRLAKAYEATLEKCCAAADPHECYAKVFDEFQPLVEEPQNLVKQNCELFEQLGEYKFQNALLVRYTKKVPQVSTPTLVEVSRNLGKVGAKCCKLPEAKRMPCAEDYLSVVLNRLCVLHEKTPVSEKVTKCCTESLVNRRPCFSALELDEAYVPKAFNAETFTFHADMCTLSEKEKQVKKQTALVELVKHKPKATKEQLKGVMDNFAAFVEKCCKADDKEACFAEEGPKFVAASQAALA

Binder | Kd (Rhesus serum albumin [4]) | Kd (murine serum albumin [5]) | further results
B1 |  |  | Kd (murine serum albumin [1]): 3.22 nM; koff (murine serum albumin [1]): 0.000776 s⁻¹; kon (murine serum albumin [1]): 241000 M⁻¹ s⁻¹; Kd (Rhesus serum albumin [2]): 0.0601 nM; koff (Rhesus serum albumin [2]): 6.78e-05 s⁻¹; kon (Rhesus serum albumin [2]): 1.13e+06 M⁻¹ s⁻¹; Kd (human serum albumin [3]): 0.0748 nM; koff (human serum albumin [3]): 3.02e-05 s⁻¹; kon (human serum albumin [3]): 404000 M⁻¹ s⁻¹
B2 | 17.5 nM |  | 
B3 | 0.5 nM | 20.6 nM | 
B4 | 104 nM | 1650 nM | 
B5 | 5.1 nM | 103 nM | 
B6 | 1.3 nM | 37.8 nM | 
B7 | 8.4 nM | 190 nM | 
B8 | 65 nM | 1000 nM | 
B9 | 43.7 nM | 571 nM | 
B10 | 206 nM | 551 nM | 
B11 |  |  | Kd (murine serum albumin [6]): 1.86 nM
B12 |  |  | Kd (murine serum albumin [7]): 8.2 nM; Kd (human serum albumin [8]): 0.7 nM
